Assay results published in patent publication US20190092852A1 (Genentech, published 2019).
Numbering of substitutions follows the chain as printed.

T1: human IL-33 (R&D Systems, #3625-IL-010/CF) (human, UniProt O95760 112-270)
T1 sequence (looked up): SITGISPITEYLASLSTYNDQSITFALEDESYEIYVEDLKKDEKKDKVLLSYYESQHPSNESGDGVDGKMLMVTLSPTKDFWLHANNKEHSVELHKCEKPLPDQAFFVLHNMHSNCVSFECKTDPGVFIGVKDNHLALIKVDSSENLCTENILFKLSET

T2: cyno IL-33 N-His (cynomolgus monkey)
T2 chain: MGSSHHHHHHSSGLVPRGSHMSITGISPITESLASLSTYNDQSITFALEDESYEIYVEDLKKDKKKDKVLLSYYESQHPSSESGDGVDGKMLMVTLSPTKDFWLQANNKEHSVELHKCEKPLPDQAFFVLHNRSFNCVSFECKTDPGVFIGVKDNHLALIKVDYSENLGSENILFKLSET

T3: human IL-33 N-His (human)
T3 chain: T2 chain with S32Y, K64E, S81N, Q105H, R133M, S134H, F135S, Y164S, G169C, S170T

T4: biotinylated human IL-33 (human, UniProt O95760 112-270, biotin-labeled with EZ-LINK NHS-PEG4-Biotin)
T4 construct: also called biotin-huIL-33
T4 sequence (looked up): T1 sequence (looked up)

B1: 10C12.38.H6.87Y.58I IgG4 (antibody, V domains shown)
VH: EVQLVESGGGLVQPGGSLRLSCAASGFTFSSFSMSWVRQAPGKGLEWVATISGGKTFTDYVDSVKGRFTISRDDSKNTLYLQMNSLRAEDTAVYYCTRANYGNWFFEVWGQGTLVTVSS
VL: EIVLTQSPATLSLSPGERATLSCRASESVAKYGLSLLNWFQQKPGQPPRLLIFAASNRGSGIPARFSGSGSGTDFTLTISSLEPEDFAVYYCQQSKEVPFTFGQGTKVEIKR
notes: also called anti-IL33 10C12.38.H6.87Y.58I IgG4
B2: H4H9659P (antibody, IgG4, V domains shown)
VH: QVQLVQSGAEVKKPGASVKVSCKASGYTFNSYGISWVRQAPGQGLEWMGWISSHNGNSHYVQKFQGRVSMTTDTSTSTAYMELRSLRSDDTAVYYCARHSYTTSWYGGFDYWGQGTLVTVSS
VL: DIQMTQSPSSVSASVGDRVTITCRASQGFSSWLAWYQQKPGKAPQLLIYAASSLQSGVPSRFSGSGSGSDFTLTISSLQPEDFATYYCQQANSFPLTFGGGTKVEIK
notes: also called RG7

Experiments:
[1] = biological target: T1, human IL-33 (R&D Systems, …); assay: cell-based or functional assay
[2] = biological target: T2, cyno IL-33 N-His; assay: SPR Biacore T200, 25 C
How it was run: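 Antibodies captured via anti-Fc on CM5 chip; IL-33 injected at 3.7–100 nM (three-fold series), 4 min association, 10 min dissociation, 30 μl/min, ADA pH 7.4 buffer with 0.15 M NaCl, EDTA, Tween-20, at 25 °C or 37 °C. KD = koff/kon from 1:1 Langmuir fit; t1/2 = ln(2)/(60*koff).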

[3] = biological target: T3, human IL-33 N-His; assay: cell-based or functional assay
[4] = biological target: T4, biotinylated human IL-33; assay: competitive ELISA, biotin-huIL-33 to coated hST2-Fc
[5] = biological target: T1, human IL-33 (R&D Systems, …); assay: cell-based or functional assay; remark: listed apart in the source
[6] = biological target: T1, human IL-33 (R&D Systems, …); assay: cell-based or functional assay; remark: listed apart in the source

Binder	HEK-BLUE SEAP reporter IC50 [1]	IFN-γ secretion from primary NK cells, IC50 [1]	phospho-p38 in primary basophils, IC50 [1]	Kd [2]	koff [2]	kon [2]	t1/2 [2]	IC50; SEAP reporter, HEK-BLUE IL-33 cells, 15 pM human IL-33 N-His, 20 h [3]	IC50 [4]	Maximum Blocking [4]	IC50, IL-33-induced phospho-p38 in primary human basophils, 500 pM hIL-33 [5]	IC50 (read off the curve) [6]
B1	0.0024 nM	0.03 nM	0.00015 nM	0.265 nM	0.000278 s⁻¹	1.05e+06 M⁻¹ s⁻¹	42 min	12 pM	0.021 nM	92%	–	–
B2	–	–	–	2.61 nM	0.000479 s⁻¹	183000 M⁻¹ s⁻¹	24 min	–	0.23 nM	88%	6.7e-13 M	~0.0007 nM
